From the supplement of paper PMC7125110
± gives the standard error. Variants at the floor of the assay were thinned out.

B1: glmS ribozyme (parent)
chain: AUAAAAGCGCCAGAACUACAGAAAUGUAGUUGACGAGGAGGAGGUUUAUCGAAUUUUCGGCGGAUGCCUCCAAA

Variants of: B1
Assay: self-cleavage kobs at 2500 uM GlcN6P; higher = faster cleavage; RNA array
Conditions: with glucosamine-6-phosphate
Method in brief: (§1)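 kobs was derived by fitting per-tile medians to one- or two-exponential decays after normalising signals to baseline and to non-cleaving reference variants. Those signals came from barcoded ribozyme variants transcribed in situ by E. coli RNA polymerase on sequenced MiSeq chips, followed through a hybridised Cy3 probe at 37 °C and imaged over ~14 h. Glucosamine-6-phosphate (40 μM to 10 mM) in HEPES/KCl/Mg(OAc)2 buffer was flowed in. Weighted Michaelis–Menten fits across concentrations then gave kcat and KM.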

Variant | self-cleavage kobs at 2500 uM GlcN6P
AUAAAAGCGCCAGAACUACAGAAAUGUAGUUGACGCGGAGGAGGUUUAUCGAAUUUUCUUCGGAUGCCUGCAAA [A36C G59U G60U C70G] | < 1e-05 s⁻¹
AUAAAAGCGCCAGAACUACAGAAAUGUAGUUGACGAAGAAGAGGUUUAUCGAAUUGUCGGCGGAUGCCUCCAAA [G37A G40A U56G] | 5.62e-05 ± 1.8e-05 s⁻¹
AUAAAAGCGCCAGAACUACAGAAAUGUAGUUGACGAAGAAGAGGUUUAUCGAAUUAUCGGCGGAUGCCUCCAAA [G37A G40A U56A] | 0.000109 ± 1.8e-05 s⁻¹
AUAAAAGCGCCAGAACUACAGAAAUGUAGUUGACGAAGAGGAGCUUUAUCGAAUUUUCGGCGGAUGCCUCCAAA [G37A G44C] | 4.54e-05 ± 1.3e-05 s⁻¹
AUAAAAGCGCCAGAACUACAGAAAUGUAGUUGACGAGCAGGACGUUUAUCGAAUUGUCGGCGGAUGACACCAAA [G38C G43C U56G C67A U69A] | < 1e-05 s⁻¹
AUAAAAGCGCCAGAACUACAGAAAUGUAGUUGACUUGGAGGAGGUUUAUCGAUUUUUCGGCGCAUGCCUCCAAA [G35U A36U A53U G63C] | < 1e-05 s⁻¹
AUAAAAGCGCCAGAACUACAGAAAUGUAGUUGACUAGGAGGAGGUUUAUCGAACUUUAGGCGGAUGCCUCCAAA [G35U U54C C58A] | < 1e-05 s⁻¹
AUAAAAGCGCCAGAACUACAGAAAUGUAGUUGACGACGAGGAGGUUUAUUGAAUUUUCGGCGGAUGCCGCCAAA [G37C C50U U69G] | 6.01e-05 ± 2.6e-05 s⁻¹
AUAAAAGCGCCAGAACUACAGAAAUGUAGUUGACGAAGAGGAGGUUUAUCGAGUGUUCGGCGGAGGCCUCCAAA [G37A A53G U55G U65G] | 8.03e-05 ± 1.8e-05 s⁻¹
AUAAAAGCGCCAGAACUACAGAAAUGUAGUUGACGACGAGGCGGUUUAUCGAAUUUUCGGCGGAUGCCACCAAA [G37C A42C U69A] | < 1e-05 s⁻¹
AUAAAAGCGCCAGAACUACAGAAAUGUAGUUGACGACUAGGAGGUUUAUCAAAGUUUCGGCGGAUGCCUCCAAA [G37C G38U G51A U54G] | < 1e-05 s⁻¹
AUAAAAGCGCCAGAACUACAGAAAUGUAGUUGACGAUGAGGAGGUUUAGCGAAUUUCCGGCGGAUGCCUCCAAA [G37U U49G U57C] | < 1e-05 s⁻¹
AUAAAAGCGCCAGAACUACAGAAAUGUAGUUGACUAGGAAUAGGGUUAUCGAGUUUUCGGCGGAUGCCUCCAAA [G35U G40A G41U U45G A53G] | < 1e-05 s⁻¹
AUAAAAGCGCCAGAACUACAGAAAUGUAGUUGACGAUGAGGAGGUGUAUCGUAUUUACGGCGGAUGCCUCCAAA [G37U U46G A52U U57A] | < 1e-05 s⁻¹
AUAAAAGCGCCAGAACUACAGAAAUGUAGUUGACGGGGAGGAGGUUUAUCGCAUUUUCGGCGGAUGCUUCCAAA [A36G A52C C68U] | < 1e-05 s⁻¹
AUAAAAGCGCCAGAACUACAGAAAUGUAGUUGACGAGAAGGAGCUUUAUCGAAUUUUCGGCGGAUGCCUCCAAA [G38A G44C] | < 1e-05 s⁻¹
AUAAAAGCGCCAGAACUACAGAAAUGUAGUUGACGAAGAGGAGGUUUAUCGAAUUUUCGGCGGCUGGCUCCAAA [G37A A64C C67G] | < 1e-05 s⁻¹

Variant | self-cleavage kobs at 2500 uM GlcN6P
AUAAAAGCGCCAGAACUACAGAAAUGUAGUUGACGAUGAGGCGGUUAUUCGAAUUAUCGGCGGAUGCCUCCAAA [G37U A42C U47A A48U U56A] | < 1e-05 s⁻¹
AUAAAAGCGCCAGAACUACAGAAAUGUAGUUGACGAAGGGGAGGUUUAUCGAAUUUUCGGCGGAUGCCUCGAAA [G37A A39G C71G] | 0.000523 ± 0.00013 s⁻¹
AUAAAAGCGCCAGAACUACAGAAAUGUAGUUGACUAGGAGGAGGCUUAUCCAAUUUUCUGCGGAUGCCUCCAAA [G35U U45C G51C G59U] | < 1e-05 s⁻¹
AUAAAAGCGCCAGAACUACAGAAAUGUAGUUGACGAUGAGGACGUUUCUCGAAUUUUCGGUGUAUGCCUCCAAA [G37U G43C A48C C61U G63U] | < 1e-05 s⁻¹
AUAAAAGCGCCAGAACUACAGAAAUGUAGUUGACGUGGGGGAGGUUUAUCGAAUUUUCGGCGGAUGGCUCCAAA [A36U A39G C67G] | < 1e-05 s⁻¹
AUAAAAGCGCCAGAACUACAGAAAUGUAGUUGACGCAAAGGAGGUUUAUCGAAUUAUCGGCGGAUGCGUCCAAA [A36C G37A G38A U56A C68G] | 6.64e-05 ± 2.3e-05 s⁻¹
AUAAAAGCGCCAGAACUACAGAAAUGUAGUUGACGGGGAGGAGGUUUAUGGAAUUUUCGGCGGAUGGCUCCAAA [A36G C50G C67G] | 0.000124 ± 5.6e-05 s⁻¹
AUAAAAGCGCCAGAACUACAGAAAUGUAGUUGACGGGGAGGAGGUUUAUCGUAUUUUCGGCGGGUGCCUCCAAA [A36G A52U A64G] | < 1e-05 s⁻¹
AUAAAAGCGCCAGAACUACAGAAAUGUAGUUGACGCGGAGAAGGUUUAUCGAAUUGUCGACGGAUGCUUCCAAA [A36C G41A U56G G60A C68U] | < 1e-05 s⁻¹
AUAAAAGCGCCAGAACUACAGAAAUGUAGUUGACUUGGAGGAAGUUUAUGGAAUUUUCGGCGGAUGCCGCCAAA [G35U A36U G43A C50G U69G] | < 1e-05 s⁻¹
AUAAAAGCGCCAGAACUACAGAAAUGUAGUUGACGCAGCGGAGGUUUAUUGACUUUUCGGCGGAUGCCUCCAAA [A36C G37A A39C C50U A53C] | < 1e-05 s⁻¹
AUAAAAGCGCCAGAACUACAGAAAUGUAGUUGACGACGAGUAGGUUUCUCGAAUUUUCGGCGGAUGCCUCCAAA [G37C G41U A48C] | < 1e-05 s⁻¹
AUAAAAGCGCCAGAACUACAGAAAUGUAGUUGACGAAGCCAAGGCUUAUCUAAUUUUGGGCGGAUGCCUCCAAA [G37A A39C G40C G41A U45C G51U C58G] | < 1e-05 s⁻¹
AUAAAAGCGCCAGAACUACAGAAAUGUAGUUGACGCGGAGGAGGUUUAGCGAAUUUUCGGCGCAUGCCUCCAAA [A36C U49G G63C] | < 1e-05 s⁻¹
AUAAAAGCGCCAGAACUACAGAAAUGUAGUUGACGGGGAUGAGGGUUAUCGAAUUUUCGGCGGAUGCCUCCAAA [A36G G40U U45G] | < 1e-05 s⁻¹
AUAAAAGCGCCAGAACUACAGAAAUGUAGUUGACGAAGAGGAGGUUUAGCGUAUUUUCAGCGGAUGCCUCCAAA [G37A U49G A52U G59A] | < 1e-05 s⁻¹

Variants of: B1
Assay: self-cleavage kobs at 10000 uM GlcN6P; higher = faster cleavage; RNA array
Conditions: with glucosamine-6-phosphate
Method in brief: as §1

Variant | self-cleavage kobs at 10000 uM GlcN6P
AUAAAAGCGCCAGAACUACAGAAAUGUAGUUGACGAGAAGGAGCUUUAUCGAAUUUUCGGCGGAUGCCUCCAAA [G38A G44C] | < 1e-05 s⁻¹
AUAAAAGCGCCAGAACUACAGAAAUGUAGUUGACGCGGAGAAGGUUUAUCGAAUUGUCGACGGAUGCUUCCAAA [A36C G41A U56G G60A C68U] | < 1e-05 s⁻¹
AUAAAAGCGCCAGAACUACAGAAAUGUAGUUGACGCAGCGGAGGUUUAUUGACUUUUCGGCGGAUGCCUCCAAA [A36C G37A A39C C50U A53C] | < 1e-05 s⁻¹
